PMC9482650, “Quantitative fragmentomics allow affinity mapping of interactomes” (Nature Communications, 2022)

Columns and labels:
Assay in all cases: PDZ-AP-MS, biotinylated MBP-PDZ baits
Format in all cases: binding, human
HaCat cell extract preys = conditions: for Difference log2: bait TX1BP3 PDZ vs MBP, enrichment of prey; for Ratio TX1BP3/MBP: bait TX1BP3 PDZ, fold change of prey
Protocol: (§1) For PDZ-AP-MS experiments, PDZ domains were cloned as His6-AviTag-MBP-PDZ constructs. For co-expression with BirA, E. coli BL21(DE3) cells were co-transformed with His6-AviTag-MBP, or His6-AviTag-MBP-PDZ-coding and PET21a-BirA (Addgene #20857) plasmids. Simultaneously to IPTG induction, 50 µM biotin was added to the media. After cell harvesting, the lysis buffer was also supplemented with 50 µM biotin. Otherwise, expression and double affinity purification was identical as previously described in details.
(§2) For PBM-AP-MS experiments, 30 μl streptavidin resin was mixed with biotin or peptide at 50–60 μM concentration in 6–6.5 resin volume for 60 min to achieve resin saturation. For PDZ-AP-MS experiments, 30 μl streptavidin resin was mixed with biotinylated MBP or MBP-PDZ at 40-50 μM concentration in >1000× resin volume for 60 min to achieve resin saturation. After saturation, resins were washed a single time (ten resin volume, holdup buffer), and were depleted with biotin (1 mM biotin, 5–10 resin volume, 10 min). Finally, resins were washed two times. 0.5 ml 2 mg/ml cell lysate was added to the dry resin (1 mg total input) and were incubated at 4 °C for 2 h. Then, the beads were washed three times with 10 resin volume buffer containing: 50 mM TRIS pH 8.5, 150 mM NaCl, 1% TritonX-100, 10× complete EDTA-free protease inhibitor cocktail, 2 mM EDTA, 1 mM TCEP. Then, the beads were washed two times with ten resin volume buffer containing: 50 mM TRIS pH 8.5, 150 mM NaCl, 1 mM TCEP. Finally, captured protein was eluted from the resin in two steps and the eluted fractions were pooled. For each elution the beads were incubated for 30 min with three resin volume buffer containing: 20 mM TRIS pH8.5, 100 mM NaCl, 500 μM TCEP, 8 M Urea. Between each step, the beads were separated by mild centrifugation and the supernatant was removed by gentle pipetting.
(§3) The samples were precipitated with TCA 20% overnight at 4 °C and centrifuged at 14,000 rpm for 10 min at 4 °C. The protein pellets were washed twice with 1 mL cold acetone and air dried. The protein extracts were solubilized in urea 8 M, reduced with 5 mM TCEP for 30 min, and alkylated with 10 mM iodoacetamide for 30 min in the dark. Double digestion was performed at 37 °C with 500 ng endoproteinase Lys-C for 4 h, followed by fourfold dilution and an overnight digestion with 500 ng trypsin. Peptide mixtures were then desalted on C18 spin-column and dried on Speed-Vacuum.
(§4) Samples were analyzed using an Ultimate 3000 nano-RSLC (Thermo Scientific, San Jose California) coupled in line with a LTQ-Orbitrap ELITE mass spectrometer via a nano-electrospray ionization source (Thermo Scientific, San Jose California). Peptide mixtures were injected in 0.1% TFA on a C18 Acclaim PepMap100 trap-column (75 µm ID × 2 cm, 3 µm, 100 Å, Thermo Fisher Scientific) for 3 min at 5 µL/min with 2% ACN, 0.1% FA in H2O and then separated on a C18 Accucore nano-column (75 µm ID × 50 cm, 2.6 µm, 150 Å, Thermo Fisher Scientific) at 220 nl/min and 38 °C with a 90 min linear gradient from 5% to 30% buffer B (A: 0.1% FA in H2O/B: 99% ACN, 0.1% FA in H2O), regeneration at 5% B. The mass spectrometer was operated in positive ionization mode, in data-dependent mode with survey scans from m/z 350–1500 acquired in the Orbitrap at a resolution of 120,000 at m/z 400. The 20 most intense peaks from survey scans were selected for further fragmentation in the Linear Ion Trap with an isolation window of 2.0 Da and were fragmented by CID with normalized collision energy of 35%. (TOP20CID method) Unassigned and single charged states were excluded from fragmentation. The Ion Target Value for the survey scans (in the Orbitrap) and the MS2 mode (in the Linear Ion Trap) were set to 1E6 and 5E3 respectively and the maximum injection time was set to 100 ms for both scan modes. Dynamic exclusion was set to 20 s after one repeat count with mass width at ±10 ppm. […]

HeLa cell extract preys = conditions: for Ratio: fold enrichment of prey; for Difference: log2 enrichment of prey
Protocol: as §1, §2, §3, §4

[1] = tested on: Jurkat cell extract preys; conditions: for Difference log2: enrichment of prey
Protocol: as §1, §2, §3, §4

[2] = PDZ-AP-MS fold change of the PBM-protein prey, bait MBP-PDZ DLG1_1
[3] = PDZ-AP-MS fold change of the PBM-protein prey, bait MBP-PDZ DLG1_2
[4] = PDZ-AP-MS fold change of the PBM-protein prey, bait MBP-PDZ SCRIB_1
[5] = PDZ-AP-MS fold change of the PBM-protein prey, bait MBP-PDZ SCRIB_2
[6] = PDZ-AP-MS fold change of the PBM-protein prey, bait MBP-PDZ SNX27
[7] = PDZ-AP-MS fold change of the PBM-protein prey, bait MBP-PDZ TX1BP3

B1: ALDH9A1 (protein, UniProt P49189 1-494, looked up)
4-trimethylaminobutyraldehyde …: MSTGTFVVSQPLNYRGGARVEPADASGTEKAFEPATGRVIATFTCSGEKEVNLAVQNAKAAFKIWSQKSGMERCRILLEAARIIREREDEIATMECINNGKSIFEARLDIDISWQCLEYYAGLAASMAGEHIQLPGGSFGYTRREPLGVCVGIGAWNYPFQIASWKSAPALACGNAMVFKPSPFTPVSALLLAEIYSEAGVPPGLFNVVQGGAATGQFLCQHPDVAKVSFTGSVPTGMKIMEMSAKGIKPVTLELGGKSPLIIFSDCDMNNAVKGALMANFLTQGQVCCNGTRVFVQKEILDKFTEEVVKQTQRIKIGDPLLEDTRMGPLINRPHLERVLGFVKVAKEQGAKVLCGGDIYVPEDPKLKDGYYMRPCVLTNCRDDMTCVKEEIFGPVMSILSFDTEAEVLERANDTTFGLAAGVFTRDIQRAHRVVAELQAGTCFINNYNVSPVELPFGGYKKSGFGRENGRVTIEYYSQLKTVCVEMGDVESAF
Which “Fold changes, HaCat, DLG1_1” value (HaCat cell extract preys; [2]) does the source give for B1 here?
Its value is 0.7692.

And the “Fold changes, HaCat, DLG1_2” value (HaCat cell extract preys; [3])?
Its value is 1.032.

And the “Fold changes, HaCat, SCRIB_1” value (HaCat cell extract preys; [4])?
The value was 3.899.

And the “Fold changes, HaCat, SCRIB_2” value (HaCat cell extract preys; [5])?
Its value is 0.6746.

And the “Fold changes, HaCat, SNX27” value (HaCat cell extract preys; [6])?
Its value is 57.4815.

What about the “Fold changes, HaCat, TX1BP3” value (HaCat cell extract preys; [7]) of the same molecule?
Its value is 0.8437.

And the “Fold changes, HeLa, DLG1_1” value (HeLa cell extract preys; [2])?
The value was 0.965.

And the “Fold changes, HeLa, DLG1_2” value (HeLa cell extract preys; [3])?
The value was 0.6499.

What about the “Fold changes, HeLa, SCRIB_1” value (HeLa cell extract preys; [4]) of the same molecule?
Its value is 1.5654.

What about the “Fold changes, HeLa, SCRIB_2” value (HeLa cell extract preys; [5]) of the same molecule?
The value was 0.9621.

What about the “Fold changes, HeLa, SNX27” value (HeLa cell extract preys; [6]) of the same molecule?
Its value is 23.2299.

And the “Fold changes, HeLa, TX1BP3” value (HeLa cell extract preys; [7])?
Its value is 0.8902.

And the “Fold changes, Jurkat, DLG1_1” value [1, 2]?
The value was 0.4996.

And the “Fold changes, Jurkat, DLG1_2” value [1, 3]?
The value was 10.9748.

What about the “Fold changes, Jurkat, SCRIB_1” value [1, 4] of the same molecule?
The value was 0.5795.

And the “Fold changes, Jurkat, SCRIB_2” value [1, 5]?
The value was 0.6928.

And the “Fold changes, Jurkat, SNX27” value [1, 6]?
The value was 23.7963.

And the “Fold changes, Jurkat, TX1BP3” value [1, 7]?
The value was 0.5031.

B2: CAPRIN1 (protein, UniProt Q14444 2-709, looked up)
Caprin-1: PSATSHSGSGSKSSGPPPPSGSSGSEAAAGAGAAAPASQHPATGTGAVQTEAMKQILGVIDKKLRNLEKKKGKLDDYQERMNKGERLNQDQLDAVSKYQEVTNNLEFAKELQRSFMALSQDIQKTIKKTARREQLMREEAEQKRLKTVLELQYVLDKLGDDEVRTDLKQGLNGVPILSEEELSLLDEFYKLVDPERDMSLRLNEQYEHASIHLWDLLEGKEKPVCGTTYKVLKEIVERVFQSNYFDSTHNHQNGLCEEEEAASAPAVEDQVPEAEPEPAEEYTEQSEVESTEYVNRQFMAETQFTSGEKEQVDEWTVETVEVVNSLQQQPQAASPSVPEPHSLTPVAQADPLVRRQRVQDLMAQMQGPYNFIQDSMLDFENQTLDPAIVSAQPMNPTQNMDMPQLVCPPVHSESRLAQPNQVPVQPEATQVPLVSSTSEGYTASQPLYQPSHATEQRPQKEPIDQIQATISLNTDQTTASSSLPAASQPQVFQAGTSKPLHSSGINVNAAPFQSMQTVFNMNAPVPPVNEPETLKQQNQYQASYNQSFSSQPHQVEQTELQQEQLQTVVGTYHGSPDQSHQVTGNHQQPPQQNTGFPRSNQPYYNSRGVSRGGSRGARGLMNGYRGPANGFRGGYDGYRPSFSNTPNSGYTQSQFSAPRDYSGYQRDGYQQNFKRGSGQSGPRGAPRGRGGPPRPNRGMPQMNTQQVN
B2 was tested. Which Ratio (HeLa cell extract preys; bait DLG1_1 PDZ vs MBP control) did it give?
The Ratio was 30.4665.

What about the Difference (HeLa cell extract preys; bait DLG1_1 PDZ vs MBP control) of the same molecule?
The Difference was 4.929.

B3: TAX1BP3 (protein, UniProt O14907 2-124, looked up)
Tax1-binding protein 3: SYIPGQPVTAVVQRVEIHKLRQGENLILGFSIGGGIDQDPSQNPFSEDKTDKGIYVTRVSEGGPAEIAGLQIGDKIMQVNGWDMTMVTHDQARKRLTKRSEEVVRLLVTRQSLQKAVQQSMLS
Which “Difference log2” value (HaCat cell extract preys) does the source give for B3 here?
Its value is 10.0746.

And the “Ratio TX1BP3/MBP” value (HaCat cell extract preys)?
Its value is 1078.31.

What about the Ratio (HeLa cell extract preys; bait TX1BP3 PDZ vs MBP control) of the same molecule?
The Ratio was 86.5427.

What about the Difference (HeLa cell extract preys; bait TX1BP3 PDZ vs MBP control) of the same molecule?
Its Difference is 6.435.

What about the “Difference log2” value ([1]; bait DLG1_1 PDZ vs MBP) of the same molecule?
The value was 4.078.

What about the “Ratio DLG1_1 / MBP” value ([1]; bait DLG1_1 PDZ, fold change of prey) of the same molecule?
Its value is 16.8941.

What about the “Difference log2” value ([1]; bait TX1BP3 PDZ vs MBP) of the same molecule?
The value was 12.2171.

What about the “Ratio TX1BP3/MBP” value ([1]; bait TX1BP3 PDZ, fold change of prey) of the same molecule?
The value was 4761.06.

B4: TX1BP3 (protein, UniProt O14907 2-124, looked up)
Tax1-binding protein 3: SYIPGQPVTAVVQRVEIHKLRQGENLILGFSIGGGIDQDPSQNPFSEDKTDKGIYVTRVSEGGPAEIAGLQIGDKIMQVNGWDMTMVTHDQARKRLTKRSEEVVRLLVTRQSLQKAVQQSMLS
Which “Difference log2” value (HaCat cell extract preys) does the source give for B4 here?
Its value is 9.132.

What about the “Ratio TX1BP3/MBP” value (HaCat cell extract preys) of the same molecule?
Its value is 561.056.
